Experimental findings from publication PMC3433589 (Biochemistry, 2012) are described below.

First the molecules themselves.
T1: human Glutaminase Interacting Protein (GIP) (human, UniProt O14907 1-124)
T1 sequence (looked up): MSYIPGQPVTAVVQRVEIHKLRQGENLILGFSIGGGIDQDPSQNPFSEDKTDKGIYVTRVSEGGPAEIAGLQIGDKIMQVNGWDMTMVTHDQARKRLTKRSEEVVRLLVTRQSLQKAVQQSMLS

One assay addresses T1, human Glutaminase Interacting Protein …. Kind of assay: NMR titration.
For the molecule GSSLDVTDN [GSSLDVTDN peptide (synthetic)], the binding result is “binds”. On the same count and under the same terms, next, ESSVDLLDG [ESSVDLLDG peptide (synthetic)]: “binds”; GSGTDLDAS [GSGTDLDAS peptide (synthetic)]: “binds”; ASSSVDDMA [ASSSVDDMA peptide (synthetic)]: “binds”.

The target is the same in the next assay. Kind of assay: phage display selection.
Take ESSVDMIGD [phage clone displaying ESSVDMIGD]: the binding result is recorded as “binds”. On the same count and under the same terms, next, GSSSVDVDG [phage clone displaying GSSSVDVDG]: “binds”; AISSVDSMG [phage clone displaying AISSVDSMG]: “binds”. For GTNLDGNGD [phage clone displaying GTNLDGNGD], the binding result is given as “binds”. Same read-out and setting: next, DGNLDSYDN [phage clone displaying DGNLDSYDN]: “binds”; GYETSLDSN [phage clone displaying GYETSLDSN]: “binds”. As for DSNLDVSVE [phage clone displaying DSNLDVSVE], the binding result is listed as “binds”. The same measure, in the same setting: next, GSMNLDVQS [phage clone displaying GSMNLDVQS]: “binds”. As to GSSLDVTDN [phage clone displaying GSSLDVTDN], the binding result is given as “binds”. With GSSVDLVGD [phage clone displaying GSSVDLVGD], the binding result was “binds”. On to AYESSVDDN [phage clone displaying AYESSVDDN], for which the binding result was “binds”. Regarding ESSVDLLDG [phage clone displaying ESSVDLLDG], the binding result was “binds”. GSGTDLDAS [phage clone displaying GSGTDLDAS]: the binding result is recorded as “binds”. Consider ASSSVDDMA [phage clone displaying ASSSVDDMA], for which the binding result is recorded as “binds”.

On to VSNLDTTND [phage clone displaying VSNLDTTND], for which the binding result was “binds”. Take GSSLDVTSE [phage clone displaying GSSLDVTSE]: the binding result is “binds”. Consider GGNLDVNVG [phage clone displaying GGNLDVNVG], for which the binding result is “binds”.
